PMC4245959, “Molecular recognition of RhlB and RNase D in the Caulobacter crescentus RNA degradosome” (Nucleic Acids Research, 2014)

B3: C. crescentus RNase E catalytic domain, residues 1–575, N-terminally 6xHis tagged (domain or fragment, Caulobacter crescentus, UniProt Q9A749 1-575, looked up)
chain: MSKKMLIDAAHAEETRVVVVDGTRVEEFDFESQTRKQLRGNIYLAKVTRVEPSLQAAFIEYGGNRHGFLAFNEIHPDYYQIPVADREALMRDDSGDDEDDTPISRRASGGDDEDDVNGGDRAVDDDDDDVEEELARRKRRLMRKYKIQEVIRRRQIMLVQVVKEERGNKGAALTTYLSLAGRYGVLMPNTARGGGISRKITAVTDRKRLKSVVQSLDVPQGMGLIVRTAGAKRTKAEIKRDYEYLLRLWENIRENTLHSIAPALIYEEEDLVKRAIRDMYDKDLDGIWVEGDAGYKEARDFMRMLMPSQAKKVFNYRDPTPLFVKNKIEDHLAQIYSPVVPLRSGGYLVINQTEALVAIDVNSGKATRERNIEATALKTNCEAAEEAARQLRLRDLAGLIVIDFIDMDEAKNNRTVEKVLKDALKDDRARIQMGKISGFGLMEISRQRRRTGVLEGTTHVCEHCEGTGRVRSVESSALAALRAVEAEALKGSGSVILKVSRSVGLYILNEKRDYLQRLLTTHGLFVSVVVDDSLHAGDQEIERTELGERIAVAPPPFVEEDDDFDPNAYDDEEEE
notes: tetramer by AUC; also called CcNTD

Experiments:
[1] = target: fragment of C. crescentus RNase E containing the S1 and 5′-sensor sub-domains, residues 1–274 (Caulobacter crescentus); test: AUC; sedimentation velocity of the co-expressed, co-purified CcNTD(1–274)–RhlB complex at 2 mg/ml in 20-mM Tris pH 7.5, 200-mM NaCl, 20°C, 50 000 rpm
[2] = target: the molecule itself; test: AUC; recombinant RNase D alone; single species of 85.9 kDa
[3] = target: B3; test: AUC; sedimentation velocity of the SEC fractions of the CcNTD(1–575)–RhlB complex; continuous molar mass distribution; settings: both partners purified
[4] = target: the molecule itself; test: AUC; sedimentation velocity, CcNTD(1–575) alone at 2 mg/ml in NTD buffer, 20°C, 40 000 rpm

**Q.** For “RhlB co-expressed with CcNTD_(1–274) (enzyme)”, which stoichiometry N [1] is on record?
**A.** 1

B1: recombinant RNase D with an N-terminal hexa-histidine tag (enzyme, Caulobacter crescentus (CB15), UniProt Q9A7L8 1-389, looked up)
chain: MKLITTTAELAAFCNGLAGEPFVAVDTEFMRETTYWPKLCLIQVASPTQEAVIDPLADNIDLEPLLVVMRDERILKVFHAARQDVEIFNNLKAMPKPLFDTQVAGMAAGFGEQIAYDALVRQMLRIEIDKSSRFTDWARRPLTDAQLSYALADVTHLAKLFPILRERLETSGRLAWVEEEMTAISDPAAYDVDPEKAWRRLRPRKTAPKYLAVFKAVAAWRERTAQNRDQPRGRILKDEAIDELATQTPGNLEALNNLRGVPKGFGGSKFGPDLLAAIKDALADPEGYAPVVDKPGPPPPQNAGAVVELLKVLLKARAEEAGVASKLIATVSDLEKIAADDNATTPALTGWRREAFGSDALKIKRGELALVLDGARVRVVEVRRAPKND
notes: ribonuclease D; the RNase D gene (cc1704) amplified from C. crescentus (CB15) genomic DNA into pETDuet-1; also called 6xHis-tagged RNase D; not shown: His6, N-terminal, kept
**Q.** For B1, which “stoichiometry N” value [2] is on record?
**A.** 2

B2: recombinantly expressed and purified RhlB (enzyme, Caulobacter crescentus, UniProt Q9A779 1-517, looked up)
chain: MTEFTDLGLSPTTLQAVADTGYTTATPIQAQAIPVALAGQDVLGIAQTGTGKTAAFTLPLIDRLQSGRAKARMPRALVIAPTRELADQVAASFEKYAKGTKLSWALLIGGVSFGDQEKKLDRGVDVLIATPGRLLDHFERGKLLMTGVQFLVVDEADRMLDMGFIPDIERIFKMTPPKKQTLFFSATMPPEITRLTKQFLRDPVRIEVARPATTNANITQLLVKVPSSDPKAKRLALRALIEKAGIETGIVFCNRKTEVDIVAKSLKVHGYDAAPIHGDLDQTQRMKTLADFRSGALKILVASDVAARGLDIPAVSHVFNYDVPHHADDYVHRIGRTGRAGRTGITYMLVTPADDKGFDKVIKLIGSTPDEEKLDLDYSNAVTVKREGDRKRGGRDRDRGERGERSERPARGRGRGRERAEETVEAPAEAVAEIVDTPAMAEERPARERRPRREREPKAAAPAPTAVEAERPARAERPERPVRGVQPVRDRDDDDRRVVGFGSDVPAFLARPPRGAK
notes: DEAD-box RNA helicase RhlB (cc1847) of Caulobacter crescentus; monomeric in solution; source: recombinantly expressed and purified
**Q.** For B2, which “stoichiometry N” value [3] is on record?
**A.** 2 RhlB monomers per CcNTD_(1–575) tetramer

**Q.** With B3 as the molecule, how does the “stoichiometry N” value [4] read?
**A.** 4
